Test results taken from article PMC7464098, “Conformational Equilibrium of NADPH–Cytochrome P450 Oxidoreductase Is Essential for Heme Oxygenase Reaction” (Antioxidants, 2020).

Key:
Details in all cases: both partners purified
[1] = molecular target: T1, rat CPR mutant lacking Thr236 to Glu239 of the hinge (open-form stabilized CPR) (rat, UniProt P00388 58-678, ΔTGEE (from Thr236 to Glu239 removed)); test: AUC; sedimentation equilibrium, 5 μM heme–rHO-1 plus 5 μM CPR sample, 25 °C, 0.1 M potassium phosphate pH 7.4, 15,000 rpm, absorbance at 455 nm; fit to HO-1 + CPR ⇄ HO-1•CPR
T1 construct: rat NADPH–cytochrome P450 reductase, soluble form without the membrane-spanning region (Met1-Ile57), four consecutive hinge residues Thr236 to Glu239 removed; Holds FAD and FMN; also called ΔTGEE; source: E. coli, purified
T1 sequence (looked up): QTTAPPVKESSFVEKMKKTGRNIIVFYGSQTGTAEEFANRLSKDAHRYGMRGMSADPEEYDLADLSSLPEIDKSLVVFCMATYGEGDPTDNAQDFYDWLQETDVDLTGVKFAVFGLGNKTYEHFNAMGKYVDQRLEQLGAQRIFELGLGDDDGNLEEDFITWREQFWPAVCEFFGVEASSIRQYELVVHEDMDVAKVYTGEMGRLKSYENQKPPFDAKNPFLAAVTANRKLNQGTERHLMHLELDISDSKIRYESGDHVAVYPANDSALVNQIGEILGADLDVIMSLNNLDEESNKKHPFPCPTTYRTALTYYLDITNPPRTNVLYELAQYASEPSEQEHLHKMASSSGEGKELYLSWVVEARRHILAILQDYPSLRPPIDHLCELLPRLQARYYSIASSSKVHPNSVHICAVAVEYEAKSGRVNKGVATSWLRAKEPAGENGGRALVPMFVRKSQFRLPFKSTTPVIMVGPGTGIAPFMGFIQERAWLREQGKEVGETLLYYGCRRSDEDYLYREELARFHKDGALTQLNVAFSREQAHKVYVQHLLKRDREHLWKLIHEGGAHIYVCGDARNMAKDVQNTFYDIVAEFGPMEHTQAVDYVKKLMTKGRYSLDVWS

[2] = molecular target: rat CPR mutant with a disulfide bridge Cys147–Cys514 (closed-form stabilized CPR) (rat, UniProt P00388 58-678, Asp147 substituted with cysteine | Arg514 substituted with cysteine | Cys136Ala …, disulfide bond between Cys147 and Cys514); test: AUC; sedimentation equilibrium, equimolar mixtures (15 μM each for 147CC514; concentrations for rCPR and IAM/DTT-treated 147CC514 not told), 25 °C, 0.1 M potassium phosphate pH 7.4, 15,000 rpm, absorbance at 455 nm; apparent affinity
IAM/DTT-treated 147CC514 = IAM/DTT-treated 147CC514 (rat, UniProt P00388 58-678, Asp147 substituted with cysteine | Arg514 substituted with cysteine | Cys136Ala …, disulfide bond between Cys147 and Cys514 cleaved, both cysteine residues alkylated (2-iodoacetamide)); test: as above
[3] = molecular target: T2, rat NADPH–cytochrome P450 oxidoreductase (soluble form) (rat, UniProt P00388 58-678); test: as above
T2 construct: Holds FAD and FMN; The limit Met1-Ile57 is printed in the sentence on the 147CC514 cDNA; also called rCPR; CPR; source: E. coli, purified
T2 sequence (looked up): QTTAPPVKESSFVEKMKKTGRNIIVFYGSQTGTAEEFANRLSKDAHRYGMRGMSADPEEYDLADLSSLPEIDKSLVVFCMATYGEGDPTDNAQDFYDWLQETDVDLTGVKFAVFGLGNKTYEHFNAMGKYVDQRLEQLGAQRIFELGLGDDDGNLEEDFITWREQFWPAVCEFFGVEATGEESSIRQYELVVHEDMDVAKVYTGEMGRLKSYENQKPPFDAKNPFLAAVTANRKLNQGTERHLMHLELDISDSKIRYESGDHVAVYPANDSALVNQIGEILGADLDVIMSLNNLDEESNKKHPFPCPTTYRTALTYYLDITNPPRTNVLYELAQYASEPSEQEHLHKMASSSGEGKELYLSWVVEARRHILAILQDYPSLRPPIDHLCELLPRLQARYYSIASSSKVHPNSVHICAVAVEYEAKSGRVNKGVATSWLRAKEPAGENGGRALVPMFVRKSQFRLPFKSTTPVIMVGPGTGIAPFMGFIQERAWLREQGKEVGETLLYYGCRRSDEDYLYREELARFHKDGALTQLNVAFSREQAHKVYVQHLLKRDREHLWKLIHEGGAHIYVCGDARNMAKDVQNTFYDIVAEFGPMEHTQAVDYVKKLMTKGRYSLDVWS

B1: heme–rat heme oxygenase-1 complex (soluble form) (enzyme)
chain: MERPQLDSMSQDLSEALKEATKEVHIRAENSEFMRNFQKGQVSREGFKLVMASLYHIYTALEEEIERNKQNPVYAPLYFPEELHRRAALEQDMAFWYGPHWQEAIPYTPATQHYVKRLHEVGGTHPELLVAHAYTRYLGDLSGGQVLKKIAQKAMALPSSGEGLAFFTFPSIDNPTKFKQLYRARMNTLEMTPEVKHRVTEEAKTAFLLNIELFEELQALLTEEHKDQSPSQTEFLRQRPASLVQDTTSAETPRGKSQISTSSSQTP
notes: rat heme oxygenase-1 (HO-1), soluble form made by removing the membrane-spanning region; also called heme–rHO-1; heme–HO-1; source: E. coli, purified; reconstituted with 1.2 equiv. of heme, hydroxyapatite column
With B1 the Kd [1] was 0.178 ± 0.077 µM, the Kd [2] was 111 ± 5 µM and the Kd (IAM/DTT-treated 147CC514) was 65.5 ± 17 µM. The Kd [3] was 62.1 ± 1.7 µM.
